The text below walks through data of patent US20210388087A1 (Chugai, published 2021).

The chains are these.
B1: GLS3000 H27dA (antibody, name in Kabat numbering, V domains shown)
VH: QVQLVESGGGVVQPGRSLRLSCAASGFTFSNAWMHWVRQAPGKGLEWVAQIKAKSNNYATYYAESVKGRFTISRDDSKNSLYLQMNSLKTEDTAVYYCRYVHYGAYYGVDAWGQGTTVTVSS
VL: DIVMTQSPLSLPVTPGEPASISCRSSQSLVASNRNTYLHWYQQKPGQAPRLLIYKVSNRFSGVPDRFSGSGSGTDFTLKISRVEAEDVGVYYCGQGTQVPYTFGQGTKLEIK
notes: one-arm IgG as m2
B2: GLS3000 F55K (antibody, name in Kabat numbering, V domains shown)
VH: B1 VH
VL: B1 VL with A31H, F60K
notes: one-arm IgG as m2
B3: GLS3000 F55E (antibody, name in Kabat numbering, V domains shown)
VH: B1 VH
VL: B1 VL with A31H, F60E
notes: one-arm IgG as m2
B4: GLS3000 F55D (antibody, name in Kabat numbering, V domains shown)
VH: B1 VH
VL: B1 VL with A31H, F60D
notes: one-arm IgG as m2
B5: GLS3000 F55L (antibody, name in Kabat numbering, V domains shown)
VH: B1 VH
VL: B1 VL with A31H, F60L
notes: one-arm IgG as m2
B6: GLS3000 F55A (antibody, name in Kabat numbering, V domains shown)
VH: B1 VH
VL: B1 VL with A31H, F60A
notes: one-arm IgG as m2
B7: GLS3000 F55G (antibody, name in Kabat numbering, V domains shown)
VH: B1 VH
VL: B1 VL with A31H, F60G
notes: one-arm IgG as m2
B8: GLS3000 F55H (antibody, name in Kabat numbering, V domains shown)
VH: B1 VH
VL: B1 VL with A31H, F60H
notes: one-arm IgG as m2
B9: GLS3000 F55I (antibody, name in Kabat numbering, V domains shown)
VH: B1 VH
VL: B1 VL with A31H, F60I
notes: one-arm IgG as m2
B10: H183/L072 VH Y58R (antibody, name in Kabat numbering, V domains shown)
VH: QVQLVESGGGLVQPGRSLRLSCAASGFTFSNAWMHWVRQAPGKGLEWVAQIKDKGNAYAARYAPSVKGRFTISRDDSKNSIYLQMNSLKTEDTAVYYCHYVHYASASTVLPAFGVDAWGQGTTVTVSS
VL: B1 VL with R24Q, S25A, S28E, A31H, S32M, S61P, G94A, Q98S, Y101F
B11: H183/L072 VH Y59G (antibody, name in Kabat numbering, V domains shown)
VH: B10 VH with R61Y, Y62G
VL: B1 VL with R24Q, S25A, S28E, A31H, S32M, S61P, G94A, Q98S, Y101F
B12: H183/L072 VH Y59V (antibody, name in Kabat numbering, V domains shown)
VH: B10 VH with R61Y, Y62V
VL: B1 VL with R24Q, S25A, S28E, A31H, S32M, S61P, G94A, Q98S, Y101F
B13: H183/L072 VH Y59R (antibody, name in Kabat numbering, V domains shown)
VH: B10 VH with R61Y, Y62R
VL: B1 VL with R24Q, S25A, S28E, A31H, S32M, S61P, G94A, Q98S, Y101F
B14: H183/L072 VH Y59P (antibody, name in Kabat numbering, V domains shown)
VH: B10 VH with R61Y, Y62P
VL: B1 VL with R24Q, S25A, S28E, A31H, S32M, S61P, G94A, Q98S, Y101F
B15: H183/L072 VH Y97I (antibody, name in Kabat numbering, V domains shown)
VH: B10 VH with R61Y, Y103I
VL: B1 VL with R24Q, S25A, S28E, A31H, S32M, S61P, G94A, Q98S, Y101F
B16: H183/L072 VH Y97L (antibody, name in Kabat numbering, V domains shown)
VH: B10 VH with R61Y, Y103L
VL: B1 VL with R24Q, S25A, S28E, A31H, S32M, S61P, G94A, Q98S, Y101F
B17: H183/L072 VH Y59L (antibody, name in Kabat numbering, V domains shown)
VH: B10 VH with R61Y, Y62L
VL: B1 VL with R24Q, S25A, S28E, A31H, S32M, S61P, G94A, Q98S, Y101F
B18: H183/L072 VH Y58V (antibody, name in Kabat numbering, V domains shown)
VH: B10 VH with R61V
VL: B1 VL with R24Q, S25A, S28E, A31H, S32M, S61P, G94A, Q98S, Y101F
B19: H183/L072 VH Y97A (antibody, name in Kabat numbering, V domains shown)
VH: B10 VH with R61Y, Y103A
VL: B1 VL with R24Q, S25A, S28E, A31H, S32M, S61P, G94A, Q98S, Y101F
B20: H183/L072 VH Y59T (antibody, name in Kabat numbering, V domains shown)
VH: B10 VH with R61Y, Y62T
VL: B1 VL with R24Q, S25A, S28E, A31H, S32M, S61P, G94A, Q98S, Y101F
B21: H183/L072 VH Y94I (antibody, name in Kabat numbering, V domains shown)
VH: B10 VH with R61Y, Y100I
VL: B1 VL with R24Q, S25A, S28E, A31H, S32M, S61P, G94A, Q98S, Y101F
B22: H183/L072 VH Y59A (antibody, name in Kabat numbering, V domains shown)
VH: B10 VH with R61Y, Y62A
VL: B1 VL with R24Q, S25A, S28E, A31H, S32M, S61P, G94A, Q98S, Y101F
B23: H183/L072 VH Y59I (antibody, name in Kabat numbering, V domains shown)
VH: B10 VH with R61Y, Y62I
VL: B1 VL with R24Q, S25A, S28E, A31H, S32M, S61P, G94A, Q98S, Y101F
B24: H183/L072 VH Y59Q (antibody, name in Kabat numbering, V domains shown)
VH: B10 VH with R61Y, Y62Q
VL: B1 VL with R24Q, S25A, S28E, A31H, S32M, S61P, G94A, Q98S, Y101F
B25: H183/L072 VH Y94M (antibody, name in Kabat numbering, V domains shown)
VH: B10 VH with R61Y, Y100M
VL: B1 VL with R24Q, S25A, S28E, A31H, S32M, S61P, G94A, Q98S, Y101F
B26: H183/L072 VH Y58W (antibody, name in Kabat numbering, V domains shown)
VH: B10 VH with R61W
VL: B1 VL with R24Q, S25A, S28E, A31H, S32M, S61P, G94A, Q98S, Y101F
B27: H183/L072 VH Y59E (antibody, name in Kabat numbering, V domains shown)
VH: B10 VH with R61Y, Y62E
VL: B1 VL with R24Q, S25A, S28E, A31H, S32M, S61P, G94A, Q98S, Y101F
B28: H183/L072 VH Y59H (antibody, name in Kabat numbering, V domains shown)
VH: B10 VH with R61Y, Y62H
VL: B1 VL with R24Q, S25A, S28E, A31H, S32M, S61P, G94A, Q98S, Y101F
B29: H183/L072 VH Y59W (antibody, name in Kabat numbering, V domains shown)
VH: B10 VH with R61Y, Y62W
VL: B1 VL with R24Q, S25A, S28E, A31H, S32M, S61P, G94A, Q98S, Y101F
B30: H183/L072 VH Y59S (antibody, name in Kabat numbering, V domains shown)
VH: B10 VH with R61Y, Y62S
VL: B1 VL with R24Q, S25A, S28E, A31H, S32M, S61P, G94A, Q98S, Y101F
B31: H183/L072 VH Y59N (antibody, name in Kabat numbering, V domains shown)
VH: B10 VH with R61Y, Y62N
VL: B1 VL with R24Q, S25A, S28E, A31H, S32M, S61P, G94A, Q98S, Y101F
B32: H183/L072 VH Y59F (antibody, name in Kabat numbering, V domains shown)
VH: B10 VH with R61Y, Y62F
VL: B1 VL with R24Q, S25A, S28E, A31H, S32M, S61P, G94A, Q98S, Y101F
B33: H183/L072 VH Y59D (antibody, name in Kabat numbering, V domains shown)
VH: B10 VH with R61Y, Y62D
VL: B1 VL with R24Q, S25A, S28E, A31H, S32M, S61P, G94A, Q98S, Y101F
B34: H183/L072 VH Y97P (antibody, name in Kabat numbering, V domains shown)
VH: B10 VH with R61Y, Y103P
VL: B1 VL with R24Q, S25A, S28E, A31H, S32M, S61P, G94A, Q98S, Y101F
B35: H183/L072 VH Y59M (antibody, name in Kabat numbering, V domains shown)
VH: B10 VH with R61Y, Y62M
VL: B1 VL with R24Q, S25A, S28E, A31H, S32M, S61P, G94A, Q98S, Y101F
B36: H183/L072 VH Y94A (antibody, name in Kabat numbering, V domains shown)
VH: B10 VH with R61Y, Y100A
VL: B1 VL with R24Q, S25A, S28E, A31H, S32M, S61P, G94A, Q98S, Y101F
B37: H183/L072 VH Y58T (antibody, name in Kabat numbering, V domains shown)
VH: B10 VH with R61T
VL: B1 VL with R24Q, S25A, S28E, A31H, S32M, S61P, G94A, Q98S, Y101F
B38: H183/L072 VH Y94P (antibody, name in Kabat numbering, V domains shown)
VH: B10 VH with R61Y, Y100P
VL: B1 VL with R24Q, S25A, S28E, A31H, S32M, S61P, G94A, Q98S, Y101F
B39: H183/L072 VH Y58S (antibody, name in Kabat numbering, V domains shown)
VH: B10 VH with R61S
VL: B1 VL with R24Q, S25A, S28E, A31H, S32M, S61P, G94A, Q98S, Y101F
B40: H183/L072 VH Y94L (antibody, name in Kabat numbering, V domains shown)
VH: B10 VH with R61Y, Y100L
VL: B1 VL with R24Q, S25A, S28E, A31H, S32M, S61P, G94A, Q98S, Y101F
B41: H183/L072 VH Y59K (antibody, name in Kabat numbering, V domains shown)
VH: B10 VH with R61Y, Y62K
VL: B1 VL with R24Q, S25A, S28E, A31H, S32M, S61P, G94A, Q98S, Y101F
B42: H183/L072 VH Y97M (antibody, name in Kabat numbering, V domains shown)
VH: B10 VH with R61Y, Y103M
VL: B1 VL with R24Q, S25A, S28E, A31H, S32M, S61P, G94A, Q98S, Y101F

Where a chain is given by its changes, count along the chain named. Names may count otherwise.

T1 sequence (P07766 23-126): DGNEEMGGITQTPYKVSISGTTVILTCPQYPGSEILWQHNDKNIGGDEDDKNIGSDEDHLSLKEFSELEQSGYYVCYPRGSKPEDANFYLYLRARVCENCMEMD
T2 sequence (chain, as listed by the source limits assumed): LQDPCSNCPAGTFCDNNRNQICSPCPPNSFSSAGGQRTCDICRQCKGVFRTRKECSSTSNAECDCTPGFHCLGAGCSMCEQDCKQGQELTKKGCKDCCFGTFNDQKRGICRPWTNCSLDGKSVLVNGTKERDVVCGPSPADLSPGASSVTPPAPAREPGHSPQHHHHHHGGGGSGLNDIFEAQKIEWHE

One experiment addresses T1, CD3 epsilon homodimer protein (UniProt P07766 23-126).
T1 construct: also called CD3 (CD3 epsilon)
The experiment in a line: SPR Biacore T200, CD3e homodimer on chip, vs unaltered GLS3000 antibody.
Procedure: An appropriate amount of CD3 epsilon homodimer protein was immobilized onto Sensor chip CM4 (GE Healthcare Japan Corp.) by the amine coupling method. Then, the antibody having an appropriate concentration was injected thereto as an analyte and allowed to interact with the CD3 epsilon homodimer protein on the sensor chip. Then, the sensor chip was regenerated by the injection of 10 mmol/L glycine-HCl (pH 1.5). The assay was conducted at 25 degrees C., and HBS-EP+(GE Healthcare Japan Corp.) was used as a running buffer. […] Each parameter was calculated using Biacore T200 Evaluation Software (GE Healthcare Japan Corp.).
Take B1: the “ratio of amounts bound (Z=Y/X)” value turned out to be 0.48.

For B2, the “ratio of amounts bound (Z=Y/X)” value was found to be 1.33.

With B3, the “ratio of amounts bound (Z=Y/X)” value turned out to be 0.72.

For B4, the “ratio of amounts bound (Z=Y/X)” value amounted to 0.65.

With B5, the “ratio of amounts bound (Z=Y/X)” value was 0.76.

Consider B6, for which the “ratio of amounts bound (Z=Y/X)” value was 1.13.

Regarding B7, the “ratio of amounts bound (Z=Y/X)” value was determined as 1.31.

With B8, the “ratio of amounts bound (Z=Y/X)” value turned out to be 0.94.

For B9, the “ratio of amounts bound (Z=Y/X)” value was 0.82.

A further experiment has as its target T2, Human CD137 ECD (human).
T2 construct: also called 4-1BB
Briefly: single mutant vs template dBBDu183H.
Take B10: the “fold change of affinity” value came to 0.4 fold.

Regarding B11, the “fold change of affinity” value stood at 0.9 fold.

Consider B12, for which the “fold change of affinity” value turned out to be 0.8 fold.

As to B13, the “fold change of affinity” value amounted to 0.9 fold.

Take B14: the “fold change of affinity” value turned out to be 0.3 fold.

With B15, the “fold change of affinity” value is 0 fold.

For the molecule B16, the “fold change of affinity” value was determined as 0 fold.

For the molecule B17, the “fold change of affinity” value was determined as 1.1 fold.

As to B18, the “fold change of affinity” value came to 0.2 fold.

Consider B19, for which the “fold change of affinity” value turned out to be 0 fold.

On to B20, for which the “fold change of affinity” value was found to be 0.8 fold.

Take B21: the “fold change of affinity” value was 0 fold.

For B22, the “fold change of affinity” value was 0.7 fold.

Regarding B23, the “fold change of affinity” value is 0.7 fold.

B24: the “fold change of affinity” value worked out at 0.8 fold.

Take B25: the “fold change of affinity” value was found to be 3.2 fold.

Consider B26, for which the “fold change of affinity” value amounted to 0.2 fold.

Turning to B27, the “fold change of affinity” value is 0.7 fold.

With B28, the “fold change of affinity” value came out at 0.8 fold.

For the molecule B29, the “fold change of affinity” value was 1.5 fold.

In the case of B30, the “fold change of affinity” value was 0.8 fold.

In the case of B31, the “fold change of affinity” value stood at 0.8 fold.

Take B32: the “fold change of affinity” value worked out at 1.5 fold.

In the case of B33, the “fold change of affinity” value amounted to 0.8 fold.

For B34, the “fold change of affinity” value was 0 fold.

Regarding B35, the “fold change of affinity” value was 1.1 fold.

B36: the “fold change of affinity” value is 0 fold.

As to B37, the “fold change of affinity” value worked out at 0.3 fold.

As for B38, the “fold change of affinity” value worked out at 0 fold.

Regarding B39, the “fold change of affinity” value worked out at 0.3 fold.

Regarding B40, the “fold change of affinity” value came out at 0 fold.

For B41, the “fold change of affinity” value was found to be 1 fold.

For the molecule B42, the “fold change of affinity” value was found to be 0 fold.
